Molecular target: eGFP-myc-Orai1 (UniProt Q96D31)
Assay: cell-based or functional assay

Sequence of eGFP-myc-Orai1 (Q96D31 whole entry): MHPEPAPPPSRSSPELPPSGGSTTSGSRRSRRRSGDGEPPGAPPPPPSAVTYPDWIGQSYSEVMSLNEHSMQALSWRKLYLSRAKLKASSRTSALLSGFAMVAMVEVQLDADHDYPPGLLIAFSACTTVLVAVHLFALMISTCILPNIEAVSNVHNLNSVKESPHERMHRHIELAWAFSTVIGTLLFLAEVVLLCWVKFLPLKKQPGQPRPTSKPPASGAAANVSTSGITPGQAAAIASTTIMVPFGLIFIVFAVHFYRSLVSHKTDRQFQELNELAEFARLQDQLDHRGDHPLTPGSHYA

mCh-CAD (from UniProt Q13586 342-448)
diffusion coefficient fitted to FRAP of a single cell expressing eGFP-Orai1 with CAD: 0.026 µm^2/s | effective diffusion coefficient (D) of GFP-Orai1 co-expressed with CAD, FRAP in HEK 293 cells: 0.036 µm^2/s | mobile fraction of GFP-Orai1 co-expressed with CAD, FRAP: 87% | slowing of Orai1 diffusion by CAD, FRAP: 2 fold
